This is an account of results in US20230022700A1.

The target in this experiment is polymerized rabbit skeletal muscle actin (F-actin) (rabbit) (UniProt P68135).

The substance “Wolbachia wMel protein WD0830 (Wolbachia actin localizing effector 1, WalE1), purified from E. coli” came in with a percent of total protein in the pellet when actin was present of 24%.
